Assay [1] deals with T1, C5aR1 on human neutrophils (Homo sapiens, UniProt P21730).
T1 construct: neutrophils isolated from whole blood; host or cells: human neutrophils (cryopreserved, or isolated from whole blood)
T1 sequence (P21730 1-350): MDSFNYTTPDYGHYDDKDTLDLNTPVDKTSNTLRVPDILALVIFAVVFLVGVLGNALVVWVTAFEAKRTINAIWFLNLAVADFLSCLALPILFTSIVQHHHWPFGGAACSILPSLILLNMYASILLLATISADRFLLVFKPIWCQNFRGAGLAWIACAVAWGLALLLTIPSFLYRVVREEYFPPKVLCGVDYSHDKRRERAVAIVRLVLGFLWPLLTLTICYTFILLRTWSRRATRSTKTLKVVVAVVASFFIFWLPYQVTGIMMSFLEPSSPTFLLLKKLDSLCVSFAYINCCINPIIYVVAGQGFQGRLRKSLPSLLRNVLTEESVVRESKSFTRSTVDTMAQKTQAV
As to the kind of experiment: Cell surface binding (flow cytometry), human neutrophils. The following applies: half-log titrations 10^−7.5 to 10^−12 M, vs isotype controls. The method, then: Follow up screening to ensure specificity was performed by measuring cell surface binding to cells expressing, for example, human C5aR1, human C5aR2, mouse C5aR1, and control cells that were mock transfected. Briefly, cell surface binding was performed on various C5aR1 expressing cell lines (transiently expressed Expi293 cells, stable C5aR1-U937 cells, and neutrophils isolated from whole blood). Briefly, a titration of antibody diluted in flow buffer (1×PBS with 2% fetal bovine serum) was incubated with cells for 1 hour at 4° C. Cells were washed twice with flow buffer. Anti-human-APC secondary antibody was diluted 1:400 in flow buffer and incubated with cells for 30 minutes. Cells were washed twice with flow buffer and resuspended in 100 μL of flow buffer. Fluorescence was measured using the iQue Screen Plus flow cytometer.
Exemplary anti-C5aR1 antibodies generated as described in Example 1 were tested for binding to human neutrophils. Briefly, cryopreserved human neutrophils were obtained from Asarte Biologics.
Background: In flow cytometry, cells or beads pass a laser one at a time.

Assay [2] addresses T2, C5aR1 (human neutrophils) (Homo sapiens, UniProt P21730).
T2 construct: neutrophils isolated from whole blood; host or cells: human neutrophils (cryopreserved, or isolated from whole blood)
T2 sequence (P21730 1-350): T1 sequence (P21730 1-350)
As to the kind of experiment: C5a induced calcium flux (Fluo-4), human neutrophils. The format is cell-based. An excerpt: Intracellular calcium is released into the cytoplasm by stimulation of GPCRs and acts as a second messenger of GPCR signaling, commonly used to quantify GPCR agonism and antagonism. As such, calcium flux assays using calcium sensitive dye were utilized to detect cytosolic changes in calcium concentration. […] The dye penetrated the cell membrane and became active once inside the cell. The active form of the dye became fluorescent after binding to intracellular calcium and the fluorescence was used to determine C5aR1 signaling in response to C5a addition. Specifically, stable C5aR1-U937 cells or neutrophils isolated from whole blood were stained with Fluo-4 Direct Calcium Assay kit from Thermo Fisher for 1 hour at 37° C. Next, antibody or antagonist was incubated with the cells for 30 minutes. The basal fluorescence with an excitation at 494 nm and emission at 516 nm was measured for 15 seconds. C5a was added to the cells and the fluorescence was measured over a span of four minutes. The basal read from before C5a stimulation and the max signal after C5a stimulation were used to calculate the response ratio. The potency of the antibodies was assessed for their ability to inhibit intracellular calcium release in C5aR1 expressing cells in the presence of C5a. Similar to the chemotaxis assay, the calcium flux assays were performed using engineered cells stably expressing C5aR1 as well as using human neutrophils.
For orientation: A change in cytosolic calcium serves as a functional read-out for many receptors and channels.

Assay [3] has as its target T2, C5aR1 (human neutrophils). As to the kind of experiment: C5a induced chemotaxis (transwell), human neutrophils. The following applies: 1, 10, or 100 nM antagonist, C5a 10^−6 to 10^−9.5 M. Type of assay: cell-based. An excerpt: One of the primary mechanisms by which neutrophils migrate to the site of inflammation is by chemotaxis induced by a C5a/C5adesArg gradient is detected by C5aR1 signaling. Anti-C5aR1 antibodies were thus assessed in a chemotaxis assay for their ability to block C5a induced migration of neutrophils. The assay involved cell migration in a double chamber well separated by filters. The cells and inhibitors were applied into the upper chamber and the lower chamber was filled with the chemoattractant, causing the cells to migrate to the lower chamber. The inhibition activity was evaluated by counting the migrated cell numbers. Specifically, a titration of C5a was added to the bottom chamber a 96 transwell plate. Cells expressing human C5aR1 (C5aR1-U937 cells or human neutrophils) were incubated with or without antagonist and then seeded into the top chamber of the transwell plate. The cells were incubated for 2 hours. Cells that migrated to the bottom chamber were quantified using the CyQUANT cell proliferation kit following the manufacturer's protocol. […]
Anti-C5aR1 antibodies were assessed in a chemotaxis assay for their ability to block C5a induced migration of neutrophils. […] The inhibition activity was evaluated by counting the migrated cell numbers. […] Cells that migrated to the bottom chamber were quantified using the CyQUANT cell proliferation kit following the manufacturer's protocol. […]

Another assay deals with T3, C5aR1 (C5aR1-U937 cells) (Homo sapiens, UniProt P21730, K279N).
T3 construct: expressed in transfected cells
T3 sequence (P21730 with tags, fused parts or gaps K279N limits assumed): T1 sequence (P21730 1-350) with D2N, K279N
As to the kind of experiment: C5a induced chemotaxis (transwell), C5aR1-U937 cells. The following applies: for inhibition of cell chemotaxis: C5aR1-U937 cells, 1, 10, or 100 nM antibody, C5a 10^−6 to 10^−9.5 M; for inhibition of chemotaxis as single agents: FIGS. 18A-18C, cells not given. Type of assay: cell-based.
Text: (§1) One of the primary mechanisms by which neutrophils migrate to the site of inflammation is by chemotaxis induced by a C5a/C5adesArg gradient is detected by C5aR1 signaling. Anti-C5aR1 antibodies were thus assessed in a chemotaxis assay for their ability to block C5a induced migration of neutrophils. The assay involved cell migration in a double chamber well separated by filters. The cells and inhibitors were applied into the upper chamber and the lower chamber was filled with the chemoattractant, causing the cells to migrate to the lower chamber. The inhibition activity was evaluated by counting the migrated cell numbers. Specifically, a titration of C5a was added to the bottom chamber a 96 transwell plate. Cells expressing human C5aR1 (C5aR1-U937 cells or human neutrophils) were incubated with or without antagonist and then seeded into the top chamber of the transwell plate. The cells were incubated for 2 hours. Cells that migrated to the bottom chamber were quantified using the CyQUANT cell proliferation kit following the manufacturer's protocol. The assay was performed using engineered cells stably expressing C5aR1 as well as using human neutrophils.
as §1, with “Anti-C5aR1” for “One of the primary mechanisms by which neutrophils migrate to the site of inflammation is by chemotaxis induced by a C5a/C5adesArg gradient is detected by C5aR1 signaling. Anti-C5aR1”, “were” for “were thus”
In a first experiment, C5aR1-U937 cells were seeded into the top chamber of a 96 Transwell plate in the presence of no antibody (antagonist), or of 1, 10, or 100 nM antibody (antagonist).

Where a chain is given by its changes, count along the chain named.

B1: clone 66: anti-C5aR1 Site I antibody; VH SEQ ID NO: 483, VL SEQ ID NO: 543 (antibody, V domains shown)
VH: QVQLQQSDAELVKPGASVKISCKASGYTFIDHAIHWVKQRPEQGLEWIGYISPGNGEIKYNEKFKAKATLTADKSSSAAYMQLNSLTSADSAVYFCKRALFYYTGKYQPMDYWGQGTTVTDSS
VL: DIVMTQSQKFMSTTAGDRVSITCKASQNVGSAVVWYQQKPGRSPKLLIYSSSIRYTGVPDRFTGSGSGTDFTLTINSVQSEDLADYFCQQYNSFPLTFGAGTKLEIK
For the molecule B1, the “level of binding to human neutrophils” value in assay [1] is reported as “highest level of neutrophil binding”.

B2: clone 329: anti-C5aR1 Site II antibody; VH SEQ ID NO: 492, VL SEQ ID NO: 552 (antibody, V domains shown)
VH: QVQLQQSGAELTKPGASVKLSCKASGYTFTNYWMHWVKQRPGQGLEWIGYLNPSSGYTKYNQKFKDKATLTADKSSSTAYMQLNSLTYEDSAVYYCTRSGGDNYGNPYYFDRWGQGTTVTVSS
VL: DVVMTQTPLSLTVSLGDQASISCRSSQSLVHSNGNTYLHWYLQKPGQSPKFLIYKVSNRFSGVPDRFSGSGSGTDFRLKISRVEAEDLGVYFCSQSTLVPLTFGAGTKLEIK
As to B2, the “inhibition of C5a induced calcium efflux” value in assay [2] is “inhibition of the C5a induced calcium efflux”. Also, the “inhibition of human neutrophil chemotaxis” value in assay [3] is listed as “strongest effects”. Also, the “level of binding to human neutrophils” value in assay [1] was “highest level of neutrophil binding”. Also, in the assay with C5aR1 (C5aR1-U937 cells), the “inhibition of cell chemotaxis” value is “strongest effects” and the “inhibition of chemotaxis as single agents” value is given as “inhibited chemotaxis as single agents in a dose-dependent manner”.

B3: clone 583: anti-C5aR1 Site I antibody; VH SEQ ID NO: 536, VL SEQ ID NO: 595 (antibody, V domains shown)
VH: EVQLVESGGGLVKPGGSLKLSCAASGFTFNAYAMSWVRQTPEKRLEWVASISTGGNTYCPDSVKDRFTVSRDNVRNILYLQMSSLRSEDTAMYYCTRGYQRFSGFAYWGQGTLVTVS
VL: DVVMTQTPLSPPVSLGYQASISCRSSQSLVHSNGNTYLNWYLQKPGQSPKLLIYKVSNRLSGVPDRFSGSGSGTDFTLKISRVETEDLGVYFCSQSTHVPYTFGGGTKLEIK
Consider B3, for which, in assay [2], the “inhibition of C5a induced calcium efflux” value is “inhibition of the C5a induced calcium efflux”. Further, in the assay with C5aR1 (C5aR1-U937 cells), the “inhibition of cell chemotaxis” value is reported as “strongest effects” and the “inhibition of chemotaxis as single agents” value was “inhibited chemotaxis as single agents in a dose-dependent manner”.

(Values after patent publication US12187807B2, “Antibody molecules to C5AR1 and uses thereof” (Visterra, Inc., priority 2020, dated 2025).)
